Positions count from the first letter of the chain named. Names and notes keep the numbering of the source.
T1: human CDH6 (full-length, on cells) (human, UniProt P55285 54-790)
T1 construct: also called hCDH6; full-length hCDH6
T1 sequence: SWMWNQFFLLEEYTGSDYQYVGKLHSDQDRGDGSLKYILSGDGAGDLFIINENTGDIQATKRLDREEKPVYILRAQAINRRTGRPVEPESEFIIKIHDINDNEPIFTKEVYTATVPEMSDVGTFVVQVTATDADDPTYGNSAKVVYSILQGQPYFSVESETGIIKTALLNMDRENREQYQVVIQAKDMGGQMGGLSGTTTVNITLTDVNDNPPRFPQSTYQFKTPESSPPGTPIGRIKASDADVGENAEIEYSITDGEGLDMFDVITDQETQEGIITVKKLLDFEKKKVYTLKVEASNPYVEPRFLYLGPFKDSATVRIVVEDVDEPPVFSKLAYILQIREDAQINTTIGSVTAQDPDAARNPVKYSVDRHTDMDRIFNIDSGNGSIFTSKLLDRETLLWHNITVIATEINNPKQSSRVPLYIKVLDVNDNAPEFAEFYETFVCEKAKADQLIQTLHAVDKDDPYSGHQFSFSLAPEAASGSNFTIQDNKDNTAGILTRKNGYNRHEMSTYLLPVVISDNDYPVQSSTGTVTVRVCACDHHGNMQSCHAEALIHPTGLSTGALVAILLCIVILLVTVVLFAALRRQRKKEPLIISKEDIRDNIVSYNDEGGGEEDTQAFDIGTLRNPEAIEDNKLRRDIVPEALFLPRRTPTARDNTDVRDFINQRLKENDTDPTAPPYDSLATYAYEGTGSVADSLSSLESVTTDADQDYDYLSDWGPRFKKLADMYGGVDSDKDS

T2: cynomolgus monkey CDH6 (full-length, on cells) (cynomolgus monkey, UniProt P55285 54-790 (human entry))
T2 construct: Expressed from pcDNA3.1-cynoCDH6 on transfected cells; also called cynoCDH6
T2 sequence: T1 sequence with Y300H, H457R, A707G

T3: Recombinant Human Cadherin-6 (KCAD)/Fc Chimera (RD-SYSTEMS) (human, UniProt P55285 54-615, limits assumed)
T3 construct: Captured by an anti-histidine antibody; also called human CDH6; the antigen; not shown: Fc portion (and the histidine tag implied by anti-histidine capture) of the bought chimera
T3 sequence: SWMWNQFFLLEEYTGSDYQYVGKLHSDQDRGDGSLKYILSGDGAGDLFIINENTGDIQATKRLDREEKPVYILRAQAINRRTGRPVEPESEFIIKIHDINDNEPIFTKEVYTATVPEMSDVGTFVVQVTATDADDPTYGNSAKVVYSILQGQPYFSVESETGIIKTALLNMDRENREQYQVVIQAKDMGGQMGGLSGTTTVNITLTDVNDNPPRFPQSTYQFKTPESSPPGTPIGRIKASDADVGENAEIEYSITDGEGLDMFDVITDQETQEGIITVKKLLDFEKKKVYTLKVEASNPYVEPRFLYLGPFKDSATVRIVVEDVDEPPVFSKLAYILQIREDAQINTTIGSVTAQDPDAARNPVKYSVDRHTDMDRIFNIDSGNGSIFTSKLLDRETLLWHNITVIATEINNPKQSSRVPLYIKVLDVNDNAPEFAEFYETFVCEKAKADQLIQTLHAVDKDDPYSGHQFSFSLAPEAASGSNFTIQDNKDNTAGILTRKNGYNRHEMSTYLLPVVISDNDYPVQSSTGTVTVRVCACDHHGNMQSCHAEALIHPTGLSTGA

B1: human chimeric anti-CDH6 antibody chG019 (antibody, human IgG1)
heavy: not shown
light: DIQMTQSPSLLSASVGDRVTLNCKASQNIYKNLAWYQQKLGEGPKLLIYDANTLQTGIPSRFSGSGSGSDFTLTISSLQPEDVATYFCQQYYSGWAFGGVTNLELKRAVAAPSVFIFPPSDEQLKSGTASVVCLLNNFYPREAKVQWKVDNALQSGNSQESVTEQDSKDSTYSLSSTLTLSKADYEKHKVYACEVTHQGLSSPVTKSFNRGEC
notes: Human IgG1/kappa constant regions; also called chimeric G019 antibody; chG019 antibody
B2: humanized anti-CDH6 antibody H01L02A (antibody, human IgG1, kappa, L234A L235A)
heavy: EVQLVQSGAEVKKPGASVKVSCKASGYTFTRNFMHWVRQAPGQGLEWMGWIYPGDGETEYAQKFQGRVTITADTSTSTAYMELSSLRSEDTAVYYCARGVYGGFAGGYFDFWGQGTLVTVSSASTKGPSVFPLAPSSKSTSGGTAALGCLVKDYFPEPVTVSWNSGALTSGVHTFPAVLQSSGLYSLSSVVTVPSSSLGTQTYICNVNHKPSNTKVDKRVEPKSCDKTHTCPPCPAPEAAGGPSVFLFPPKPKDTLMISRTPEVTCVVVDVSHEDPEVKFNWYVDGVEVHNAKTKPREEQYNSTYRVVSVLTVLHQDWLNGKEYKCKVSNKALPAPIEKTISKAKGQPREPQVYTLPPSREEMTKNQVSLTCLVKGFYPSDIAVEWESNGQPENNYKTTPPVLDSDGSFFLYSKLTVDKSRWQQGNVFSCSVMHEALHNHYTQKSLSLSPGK
light: DIQMTQSPSSLSASVGDRVTITCKASQNIYKNLAWYQQKPGKAPKLLIYDANTLQTGVPSRFSGSGSGSDFTLTISSLQPEDFATYFCQQYYSGWAFGQGTKVEIKRTVAAPSVFIFPPSDEQLKSGTASVVCLLNNFYPREAKVQWKVDNALQSGNSQESVTEQDSKDSTYSLSSTLTLSKADYEKHKVYACEVTHQGLSSPVTKSFNRGEC
notes: hH01A heavy chain (hH01 with L234A/L235A, EU index; IgG1 LALA) and hL02 light chain; also called H01L02A antibody
B3: humanized anti-CDH6 antibody H11L02A (antibody, human IgG1, kappa, L234A L235A, V domains shown)
VH: EVQLVQSGAEVKKPGASVKVSCKASGYTFTRNFMHWVRQAPGQGLEWMGWIAPGDGETEYAQKFQGRVTITADTSTSTAYMELSSLRSEDTAVYYCARGVYGGFAGGYFDFWGQGTLVTVSS
VL: DIQMTQSPSSLSASVGDRVTITCKASQNIYKNLAWYQQKPGKAPKLLIYDANTLQTGVPSRFSGSGSGSDFTLTISSLQPEDFATYFCQQYYSGWAFGQGTKVEIKR
notes: hH11A heavy chain (hH01 with the 71st tyrosine changed to alanine, IgG1 LALA) and hL02 light chain; also called H11L02A antibody
B4: humanized anti-CDH6 antibody H31L02A (antibody, human IgG1, kappa, L234A L235A, V domains shown)
VH: B3 VH with A52Y, Q62S, F104A
VL: B3 VL
notes: hH31A heavy chain (hH01 with the 81st glutamine changed to serine and the 123rd phenylalanine to alanine, IgG1 LALA) and hL02 light chain; also called H31L02A antibody

Tests used:
[1] = biological target: T1, human CDH6 (full-length, on cells); test: flow cytometry, 293α cells transiently transfected with pcDNA3.1-hCDH6, PE anti-human IgG Fcγ F(ab')2, mean fluorescence intensity
Description: (§1) The CDH6-binding activity of the human chimeric anti-CDH6 antibody chG019 purified in 4)-2 was confirmed by flow cytometry. […] The cells were cultured overnight under conditions of 37° C. and 5% CO₂, treated with TrypLE Express (Thermo Fisher Scientific Inc.), and thereafter, a cell suspension was prepared. chG019 was added to the suspension of each of these cells. The cells were left standing at 4° C. for 1 hour. Thereafter, the cells were washed twice with PBS supplemented with 5% FBS, and then suspended by the addition of PE-labeled F(ab′)2 Fragment anti-human IgG, Fcγ antibody (Jackson ImmunoResearch Laboratories, Inc.) that had been 500-fold diluted with PBS supplemented with 5% FBS. The cells were left standing at 4° C. for 1 hour. The cells were washed twice with PBS supplemented with 5% FBS, and then re-suspended in PBS supplemented with 5% FBS, followed by detection using a flow cytometer (Canto II; BD Biosciences). The data was analyzed using FlowJo (TreeStar, Inc.). […] In FIG. 4, the abscissa depicts antibody concentration, and the ordinate depicts the amount of the antibody bound, based on mean fluorescence intensity.

[2] = biological target: T2, cynomolgus monkey CDH6 (full-length, on …); test: flow cytometry, 293α cells transiently transfected with pcDNA3.1-cynoCDH6, PE anti-human IgG Fcγ F(ab')2, mean fluorescence intensity
Description: as §1

[3] = biological target: T3, Recombinant Human Cadherin-6 (KCAD)/Fc …; test: SPR (Biacore T200), antigen captured by immobilized anti-histidine antibody, antibody as analyte, steady state affinity model
Description: The dissociation constant of a construct of each of H01L02A, H11L02A and H31L02A prepared in Example 7)-4 and human CDH6 was measured by using Biacore T200 (GE Healthcare Biosciences Corp.), according to a capture method, which comprises capturing the antigen as a ligand with Anti-histidine antibody immobilized by means of a His Capture Kit (manufactured by GE Healthcare Bioscience) and then measuring the dissociation constant using an antibody as an analyte. As the sensor chip, CM5 (manufactured by GE Healthcare Bioscience) was used. As the running buffer, buffer containing 20 mM Tris-HCl, 150 mM NaCl, 1 mM CaCl₂ and 0.05% Surfactant P20 (pH7.4), was used. On the chip, a 1 μg/mL Recombinant Human Cadherin-6 (KCAD)/Fc Chimera (RD-SYSTEMS) was added at a rate of 10 μL/minute for 60 seconds, and a dilution series solution (0.11 to 81 μg/mL) of the antibody prepared in Example 7)-4 was then added at a flow rate of 30 μl/min for 180 seconds. Subsequently, the dissociation phase was monitored for 180 seconds. As a regeneration solution, a Glycine 1.5 (GE Healthcare Bioscience made by the company) was added at a flow rate of 20 μl/min for 30 seconds. A Steady State Affinity model was used in data analysis, and the dissociation constant (KD) was calculated.

Binder | EC50 (read off the curve) [1] [µg/mL] | EC50 (read off the curve) [2] [µg/mL] | Kd [3] [nM]
B1 | ~0.01 | ~0.01 | –
B2 | – | – | 2.8
B3 | – | – | 43.1
B4 | – | – | 11.1
